Test results taken from patent US20020142955.

Columns and labels:
Suc-βAla-Leu-Tyr-Leu-Dox = tested on: T1, Suc-βAla-Leu-Tyr-Leu-Dox
T1 sequence: XLYL

[1] = tested on: Mcc-Pro-Leu-Gly-Pro-D-Lys(DNP)

Sequence of partially purified HeLa cell trouase (HeLa cell anion exchange fraction pool, F1) (chain, as listed by the source): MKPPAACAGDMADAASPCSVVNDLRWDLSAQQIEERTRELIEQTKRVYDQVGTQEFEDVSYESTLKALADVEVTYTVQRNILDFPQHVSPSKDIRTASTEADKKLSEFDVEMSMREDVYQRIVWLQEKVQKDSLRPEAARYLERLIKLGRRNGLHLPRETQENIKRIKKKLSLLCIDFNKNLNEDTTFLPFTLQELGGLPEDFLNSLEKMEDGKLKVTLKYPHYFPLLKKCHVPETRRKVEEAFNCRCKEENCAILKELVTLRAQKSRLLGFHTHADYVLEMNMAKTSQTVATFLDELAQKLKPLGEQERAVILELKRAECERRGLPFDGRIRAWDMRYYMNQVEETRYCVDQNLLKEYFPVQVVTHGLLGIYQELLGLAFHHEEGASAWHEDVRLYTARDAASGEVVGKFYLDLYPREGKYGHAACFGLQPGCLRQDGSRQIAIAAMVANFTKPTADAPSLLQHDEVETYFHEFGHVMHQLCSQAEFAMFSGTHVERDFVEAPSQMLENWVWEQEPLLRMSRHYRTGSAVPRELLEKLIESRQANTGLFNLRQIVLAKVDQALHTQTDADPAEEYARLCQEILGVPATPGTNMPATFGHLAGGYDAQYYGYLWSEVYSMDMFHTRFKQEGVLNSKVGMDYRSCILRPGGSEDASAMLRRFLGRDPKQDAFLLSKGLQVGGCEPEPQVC

purified Porcine Kidney CD10 showed a % hydrolysis/10 hr (% hydrolysis/10 hr) (Suc-βAla-Leu-Tyr-Leu-Dox) of 0, a Fraction hydrolyzed relative to standard (Suc-βAla-Leu-Tyr-Leu-Dox) of 0 and a % hydrolysis/10 hr (% hydrolysis/10 hr) (Suc-βAla-Leu-Ala-Leu-Dox) of 10.9. The Fraction hydrolyzed relative to standard (Suc-βAla-Leu-Ala-Leu-Dox) was 1.
“partially purified HeLa cell trouase (HeLa cell anion exchange fraction pool, F1)” gave a rate of hydrolysis (Table 1, (F1)) (Suc-Met-Ala-Leu-Dox) of 0.49, a rate of hydrolysis (Table 1, (F1)) (Suc-Leu-NmAla-Leu-Dox) of 0 and a rate of hydrolysis (Table 1, (F1)) (Suc-Leu-Ala-Gly-Dox) of 0.4. For the same substance, the rate of hydrolysis (Table 1, (F1)) (Suc-βAla-Leu-Ala-Leu-Dox) was 1, the rate of hydrolysis (Table 1, (F1)) (Suc-Ile-Ala-Leu-Dox) was 0 and the rate of hydrolysis (Table 1, (F1)) [1] was 1.5. The “extent of cleavage (HPLC), fold of that of Suc-βAla-Leu-Ala-Leu-Dnr” value (Suc-Ala-Leu-Ala-Leu-Dnr) was “only 0.6 fold that of the P2 β-alanine compound”, the rate of hydrolysis (Table 1, (F1)) (Suc-βAla-Ile-Ala-Leu-Dox) was 0.025 and the rate of hydrolysis (Table 1, (F1)) (Suc-Ile-NmAla-Leu-Dox) was 0. For the same substance, the rate of hydrolysis (Table 1, (F1)) (Suc-Leu-Ala-Leu-Dox) was 0.78.
